The results in this text go back to PMC12948236.

The target in data set [1] is T1, thrombin (UniProt P00734;P00734 328-363;364-622). Briefly: AFM imaging / C-AFM; monovalent anchoring; Na+ samples: 140 mM NaCl, 40 mM Tris-acetic acid, 1 mM EDTA, 12.5 mM MgCl2, 5 mM KCl; specificity tests 5 nM origami, 100 nM protein; imaging buffer, pH and tem.
In data set [2] the target is T1, thrombin. The data set is described as follows: AFM imaging; 5 nM origami, 100 nM thrombin; empty:filled cavities 25:0; Na+ samples: 140 mM NaCl, 40 mM Tris-acetic acid, 1 mM EDTA, 12.5 mM MgCl2, 5 mM KCl; specificity tests 5 nM origami, 100 nM protein; imaging buffer, pH and tem.

B1: DNA origami with TBA15 only (20-TBA15) (mixed)
DNA: CATCTGACCTCTGTGCTGCTTTTTGGTTGGTGTGGTTGGTTTTTTCACGGTAGCACGCATAGG
modifications: 3'-C3-S-S-C3 on edge staples; none on aptamer strand
In the case of B1, in data set [1], the binding result is reported as “binds”.

B2: DNA origami with four SA aptamers (20-SAA1) (mixed)
DNA: TGAATCTAACGGTGCGTATCTTTTTCTGTGAGACGACGCACCGTCGCAGGTTTTGTCTCACAGTTTTGTACCTCGGAGACCAAGTAG
modifications: 3'-C3-S-S-C3 on edge staples (gold samples); none on aptamer strand
Turning to B2, in data set [2], the binding result was “no binding”.
